Test results reported in publication PMC12212138, “Crystal structure and mutagenesis of a nucleic acid–binding BRCT domain in human PARP4”.

How the values were obtained:
[1] = molecular target: T1, PARP4 BRCT WT (human, UniProt Q9UKK3 1-100); experiment: FP; 3 nM probe; FP: 50 mM Tris pH 7.5, 50 mM NaCl, 1 mM MgCl2, 0.05% NP40, 2 mM DTT, 5% glycerol, 25 ug/ml BSA, room temp 30 min; EMSA: 50 mM Tris pH 7.5, 50 mM NaCl, 4% Ficoll PM400, 0.05% NP40, 2 mM DTT, 0-18 uM protein, room temp 30 min, gel at 4 C; conditions: protein: recombinant; tags: N-terminal His-SUMO removed by TEV; label: 5'-6-FAM; predicted intramolecular fold
T1 sequence: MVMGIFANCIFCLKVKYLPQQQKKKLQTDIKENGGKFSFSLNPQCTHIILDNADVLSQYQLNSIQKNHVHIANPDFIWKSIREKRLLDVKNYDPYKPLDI

[2] = molecular target: T2, PARP4 BRCT-WGR-CAT WT (human, UniProt Q9UKK3 1-573); experiment: FP; 15 nM probe; FP: 50 mM Tris pH 7.5, 50 mM NaCl, 1 mM MgCl2, 0.05% NP40, 2 mM DTT, 5% glycerol, 25 ug/ml BSA, room temp 30 min; EMSA: 50 mM Tris pH 7.5, 50 mM NaCl, 4% Ficoll PM400, 0.05% NP40, 2 mM DTT, 0-18 uM protein, room temp 30 min, gel at 4 C; conditions: protein: recombinant, tags: N-terminal His-SUMO removed by TEV
T2 sequence: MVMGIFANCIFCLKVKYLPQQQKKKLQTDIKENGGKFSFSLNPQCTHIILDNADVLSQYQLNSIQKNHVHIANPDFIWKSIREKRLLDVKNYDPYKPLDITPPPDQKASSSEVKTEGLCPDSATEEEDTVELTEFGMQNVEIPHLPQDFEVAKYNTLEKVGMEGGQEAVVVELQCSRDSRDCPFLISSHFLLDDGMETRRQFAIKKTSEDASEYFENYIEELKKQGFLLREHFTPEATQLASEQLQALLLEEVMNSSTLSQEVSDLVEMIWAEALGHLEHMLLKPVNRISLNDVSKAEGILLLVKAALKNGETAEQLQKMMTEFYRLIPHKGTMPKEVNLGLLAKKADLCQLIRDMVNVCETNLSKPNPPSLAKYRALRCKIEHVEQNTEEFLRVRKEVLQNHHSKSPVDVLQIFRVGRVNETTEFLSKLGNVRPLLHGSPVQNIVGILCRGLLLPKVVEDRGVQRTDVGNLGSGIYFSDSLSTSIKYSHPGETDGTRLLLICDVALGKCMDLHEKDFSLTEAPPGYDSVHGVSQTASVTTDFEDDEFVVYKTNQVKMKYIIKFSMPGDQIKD

[3] = molecular target: T2, PARP4 BRCT-WGR-CAT WT; experiment: EMSA; 20 nM probe; FP: 50 mM Tris pH 7.5, 50 mM NaCl, 1 mM MgCl2, 0.05% NP40, 2 mM DTT, 5% glycerol, 25 ug/ml BSA, room temp 30 min; EMSA: 50 mM Tris pH 7.5, 50 mM NaCl, 4% Ficoll PM400, 0.05% NP40, 2 mM DTT, 0-18 uM protein, room temp 30 min, gel at 4 C; conditions: protein: recombinant; tags: N-terminal His-SUMO removed by TEV; label: 5'-6-FAM; single strand, predicted fold

B1: vtRNA1-2 (structured_RNA)
RNA: GGCUGGCUUUAGCUCAGCGGUUACUUCGAGUACAUUGUAACCACCUCUCUGGGUGGUUCGAGACCCGCGGGUGCUUUCCAGCUCUUUU
Kd [1]: 20 ± 5 µM

GUCAUCAAACCACCUCUCUGGGUUGUUCGAGAC (structured_RNA) [Probe 2]
Kd ([2]; label: 5'-6-FAM, single strand, predicted fold): 44 ± 13 µM
Kd [3]: 11 ± 3 µM

B2: vtRNA1-1 (structured_RNA)
RNA: GGCUGGCUUUAGCUCAGCGGUUACUUCGACAGUUCUUUAAUUGAAACAAGCAACCUGUCUGGGUUGUUCGAGACCCGCGGGCGCUCUCCAGUCCUUUU
Kd [1]: 13 ± 4 µM

B3: Probe 1 (dsRNA)
RNA 1: GGCUGGCUUUAGCUCAGCGG
RNA 2: CCGCGGGCGCUCUCCAGCCCUCUU
Kd ([2]; label: 5'-6-FAM on strand 1, two-strand partial duplex): 25 ± 10 µM
